One data set deals with CHO-S cells. As to the kind of experiment: PI-PLC treatment of expressing cells, Western blot of media and cells. Format: cell-based, Chinese Hamster. As to conditions: cells incubated with PI-PLC for 2 hours. On the procedure:
In this example, following transient expression, as described in Example 2 above, the media and cells were harvested separately and analyzed for PH20 expression and solublility by Western blot analysis. Solubility of the C-terminus truncation mutants was determined by examining whether the expressed protein was present in the growth media or in the cells. […] Cells expressing these mutants were treated with phosphoinositol-phospholipase C (PI-PLC), which cleaves the GPI-anchor allowing the release of soluble protein into the media, and the presence of PH20 in the resulting media and cells was determined by Western blot analysis.
Following expression of rHuPH20 in CHO—S cells for 72 hours, as described in Example 2A above, the media and cells were harvested separately. The cells were washed with serum-free media followed by the addition of 2 mL serum-free media per well. PI-PLC (0.5 units/well) was added to each well and the cells were incubated in the PI-PLC for 2 hours. The resultant media and cells were analyzed by Western blot analysis as described above.
Two plates each of rHuPH20 expressing CHO—S cells, one for treatment with PI-PLC and one without treatment with PI-PLC, were prepared for each C-terminus mutant as described in Example 2B above. Following expression for 48 hours, for cells untreated with PI-PLC, the media and cells were harvested separately. The harvested media was spun down, concentrated to a volume of 10 mL, and buffer exchanged into PBS using an Amicon 30 kD MWCO concentrator. The cells were rinsed with cold PBS and scraped and resuspended in 1.2 mL PBS with protease inhibitor Set III (Cat No. 539134, Calbiochem). The resuspended cells were briefly sonicated to prepare whole-cell extract. For PI-PLC treatment of cells, following expression for 48 hours, the untreated media was harvested, as described above. The cells were rinsed once with fresh CD DG44 medium with Glutamax-1, and the media was replaced with 12 mL fresh detergent free CD DG44 medium supplemented with Glutamax-1 with 3.0 units PI-PLC per dish, and the cells were incubated for 2 hours at 37° C. with 5% CO2. After 2 hours, the PI-PLC media and cells were harvested separately, as described above. The resultant untreated media and cells, and PI-PLC treated media and cells, were analyzed by Western blot analysis as described above.

Data set [1] can be described thus: Triton X-114 partition assay. Format: physicochemical. As to conditions: partition into aqueous phase of Triton X-114 at 37° C.; listed as Full length PH20. On the procedure:
Solubility of a hyaluronidase can be determined by any method known to one of the skill in the art. One method for determining solubility is by detergent partitioning. […] For example, the solubility of the PH20 polypeptides described herein is assessed as described in Example 4. Membrane-anchored hyaluronidases, such as lipid-anchored hyaluronidases, including GPI-anchored hyaluronidases, will partition into the detergent-rich phase, but will partition into the detergent-poor or aqueous phase following treatment with Phospholipase C. Phospholipase C is an enzyme that cleaves the […] found in GPI-anchored proteins. Treatment with PLC will cause release of GPI-linked proteins from the outer cell membrane.
The samples were heated to 37° C. for 3 minutes to induce phase separation and centrifuged for 3 min at 4000 g at room temperature. Aqueous and detergent phases were removed for SDS-PAGE analysis and Western blotting. Rabbit anti-PH20 IgG (0.5 μg/mL) was used as the primary antibody and HRP-conjugated goat anti-Rabbit IgG (0.1 ng/mL, Cat#DC03L, EMD) was used as the secondary antibody. Full length human PH20, which partitions strongly into the detergent phase, was used as a control.

The nature of data set [2]: Microtiter hyaluronidase activity assay with biotinylated-hyaluronic acid. Format: biochemical. The following applies: 72 hour post transfection supernatant.

B1: SPAM1-VASL: full length human PH20, precursor 509 aa (SEQ ID NO:1), mature 474 aa (SEQ ID NO:108) (protein, listed as Homo sapiens)
chain: MGVLKFKHIFFRSFVKSSGVSQIVFTFLLIPCCLTLNFRAPPVIPNVPFLWAWNAPSEFCLGKFDEPLDMSLFSFIGSPRINATGQGVTIFYVDRLGYYPYIDSITGVTVNGGIPQKISLQDHLDKAKKDITFYMPVDNLGMAVIDWEEWRPTWARNWKPKDVYKNRSIELVQQQNVQLSLTEATEKAKQEFEKAGKDFLVETIKLGKLLRPNHLWGYYLFPDCYNHHYKKPGYNGSCFNVEIKRNDDLSWLWNESTALYPSIYLNTQQSPVAATLYVRNRVREAIRVSKIPDAKSPLPVFAYTRIVFTDQVLKFLSQDELVYTFGETVALGASGIVIWGTLSIMRSMKSCLLLDNYMETILNPYIINVTLAAKMCSQVLCQEQGVCIRKNWNSSDYLHLNPDNFAIQLEKGGKFTVRGKPTLEDLEQFSEKFYCSCYSTLSCKEKADVKDTDAVDVCIADGVCIDAFLKPPMETEEPQIFYNASPSTLSATMFIVSILFLIISSVASL
modifications: Human PH20 cDNA encoding amino acids 1-509
For B1, the “Expressed in Media Following Addition of PI-PLC” value (shortened to “Expressed”) in the data set with CHO-S cells is recorded as “YES”. In addition, the Soluble entry in data set [1] is “insoluble”. Moreover, in data set [2] (Table 6), the “pH 5.5 Activity” value was determined as 0.891 Units/ml and the “pH 7.4 Activity” value was found to be 1.8045 Units/ml.

B2: SPAM1-FLII: C-terminally truncated human PH20, precursor 503 aa (SEQ ID NO:5), mature 468 aa (SEQ ID NO:57) (protein, listed as Homo sapiens)
chain 1: MGVLKFKHIFFRSFVKSSGVSQIVFTFLLIPCCLTLNFRAPPVIPNVPFLWAWNAPSEFCLGKFDEPLDMSLFSFIGSPRINATGQGVTIFYVDRLGYYPYIDSITGVTVNGGIPQKISLQDHLDKAKKDITFYMPVDNLGMAVIDWEEWRPTWARNWKPKDVYKNRSIELVQQQNVQLSLTEATEKAKQEFEKAGKDFLVETIKLGKLLRPNHLWGYYLFPDCYNHHYKKPGYNGSCFNVEIKRNDDLSWLWNESTALYPSIYLNTQQSPVAATLYVRNRVREAIRVSKIPDAKSPLPVFAYTRIVFTDQVLKFLSQDELVYTFGETVALGASGIVIWGTLSIMRSMKSCLLLDNYMETILNPYIINVTLAAKMCSQVLCQEQGVCIRKNWNSSDYLHLNPDNFAIQLEKGGKFTVRGKPTLEDLEQFSEKFYCSCYSTLSCKEKADVKDTDAVDVCIADGVCIDAFLKPPMETEEPQIFYNASPSTLSATMFIVSILFLII
chain 2: LNFRAPPVIPNVPFLWAWNAPSEFCLGKFDEPLDMSLFSFIGSPRINATGQGVTIFYVDRLGYYPYIDSITGVTVNGGIPQKISLQDHLDKAKKDITFYMPVDNLGMAVIDWEEWRPTWARNWKPKDVYKNRSIELVQQQNVQLSLTEATEKAKQEFEKAGKDFLVETIKLGKLLRPNHLWGYYLFPDCYNHHYKKPGYNGSCFNVEIKRNDDLSWLWNESTALYPSIYLNTQQSPVAATLYVRNRVREAIRVSKIPDAKSPLPVFAYTRIVFTDQVLKFLSQDELVYTFGETVALGASGIVIWGTLSIMRSMKSCLLLDNYMETILNPYIINVTLAAKMCSQVLCQEQGVCIRKNWNSSDYLHLNPDNFAIQLEKGGKFTVRGKPTLEDLEQFSEKFYCSCYSTLSCKEKADVKDTDAVDVCIADGVCIDAFLKPPMETEEPQIFYNASPSTLSATMFIVSILFLII
modifications: HuPH20 precursor 1-503; mature HuPH20 36-503
As for B2, the “Expressed” value in the data set on CHO-S cells was “YES”. In addition, in data set [2] (Table 6), the “pH 5.5 Activity” value is 0.6345 Units/ml and the “pH 7.4 Activity” value was 0.9405 Units/ml. In addition, in data set [2] (Table 6A), the “pH 5.5 Activity” value came to 0.648 Units/ml and the “pH 7.4 Activity” value was found to be 1.094 Units/ml.

B3: SPAM1-IISS: C-terminally truncated human PH20, precursor 505 aa (SEQ ID NO:4), mature 470 aa (SEQ ID NO:56) (protein, listed as Homo sapiens)
chain 1: MGVLKFKHIFFRSFVKSSGVSQIVFTFLLIPCCLTLNFRAPPVIPNVPFLWAWNAPSEFCLGKFDEPLDMSLFSFIGSPRINATGQGVTIFYVDRLGYYPYIDSITGVTVNGGIPQKISLQDHLDKAKKDITFYMPVDNLGMAVIDWEEWRPTWARNWKPKDVYKNRSIELVQQQNVQLSLTEATEKAKQEFEKAGKDFLVETIKLGKLLRPNHLWGYYLFPDCYNHHYKKPGYNGSCFNVEIKRNDDLSWLWNESTALYPSIYLNTQQSPVAATLYVRNRVREAIRVSKIPDAKSPLPVFAYTRIVFTDQVLKFLSQDELVYTFGETVALGASGIVIWGTLSIMRSMKSCLLLDNYMETILNPYIINVTLAAKMCSQVLCQEQGVCIRKNWNSSDYLHLNPDNFAIQLEKGGKFTVRGKPTLEDLEQFSEKFYCSCYSTLSCKEKADVKDTDAVDVCIADGVCIDAFLKPPMETEEPQIFYNASPSTLSATMFIVSILFLIISS
chain 2: LNFRAPPVIPNVPFLWAWNAPSEFCLGKFDEPLDMSLFSFIGSPRINATGQGVTIFYVDRLGYYPYIDSITGVTVNGGIPQKISLQDHLDKAKKDITFYMPVDNLGMAVIDWEEWRPTWARNWKPKDVYKNRSIELVQQQNVQLSLTEATEKAKQEFEKAGKDFLVETIKLGKLLRPNHLWGYYLFPDCYNHHYKKPGYNGSCFNVEIKRNDDLSWLWNESTALYPSIYLNTQQSPVAATLYVRNRVREAIRVSKIPDAKSPLPVFAYTRIVFTDQVLKFLSQDELVYTFGETVALGASGIVIWGTLSIMRSMKSCLLLDNYMETILNPYIINVTLAAKMCSQVLCQEQGVCIRKNWNSSDYLHLNPDNFAIQLEKGGKFTVRGKPTLEDLEQFSEKFYCSCYSTLSCKEKADVKDTDAVDVCIADGVCIDAFLKPPMETEEPQIFYNASPSTLSATMFIVSILFLIISS
modifications: HuPH20 precursor 1-505; mature HuPH20 36-505
Consider B3, for which, in the data set with CHO-S cells, the “Expressed” value is “YES”. Also, the “pH 5.5 Activity” value is 0.837 Units/ml in data set [2] (Table 6) and 0.932 Units/ml in data set [2] (Table 6A). Besides, the “pH 7.4 Activity” value in data set [2] (Table 6) came to 1.458 Units/ml; in data set [2] (Table 6A) it was 1.863 Units/ml.
